T1: AtPEN-2–RFP (Arabidopsis thaliana, UniProt Q9FY84 1-146)
T1 construct: Arabidopsis thaliana PEN-2 (AtPEN-2, At5g09310); FLIM-FRET acceptor; also called presenilin enhancer 2; source: A. thaliana leaf mesophyll protoplasts, transiently transfected (pSITE vector), in living cells; not shown: mRFP, C-terminal, kept
T1 sequence (looked up): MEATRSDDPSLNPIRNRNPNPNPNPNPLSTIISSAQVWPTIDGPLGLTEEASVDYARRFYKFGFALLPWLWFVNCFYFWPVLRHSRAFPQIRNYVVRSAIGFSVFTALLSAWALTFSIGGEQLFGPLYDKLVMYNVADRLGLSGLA

T2: AtNCT–RFP (Arabidopsis thaliana, UniProt Q8GUM5 29-676)
T2 construct: Arabidopsis thaliana nicastrin (AtNCT, At3g52640); FLIM-FRET acceptor; also called nicastrin; source: A. thaliana leaf mesophyll protoplasts, transiently transfected (pSITE vector), in living cells; not shown: mRFP, C-terminal, kept
T2 sequence (looked up): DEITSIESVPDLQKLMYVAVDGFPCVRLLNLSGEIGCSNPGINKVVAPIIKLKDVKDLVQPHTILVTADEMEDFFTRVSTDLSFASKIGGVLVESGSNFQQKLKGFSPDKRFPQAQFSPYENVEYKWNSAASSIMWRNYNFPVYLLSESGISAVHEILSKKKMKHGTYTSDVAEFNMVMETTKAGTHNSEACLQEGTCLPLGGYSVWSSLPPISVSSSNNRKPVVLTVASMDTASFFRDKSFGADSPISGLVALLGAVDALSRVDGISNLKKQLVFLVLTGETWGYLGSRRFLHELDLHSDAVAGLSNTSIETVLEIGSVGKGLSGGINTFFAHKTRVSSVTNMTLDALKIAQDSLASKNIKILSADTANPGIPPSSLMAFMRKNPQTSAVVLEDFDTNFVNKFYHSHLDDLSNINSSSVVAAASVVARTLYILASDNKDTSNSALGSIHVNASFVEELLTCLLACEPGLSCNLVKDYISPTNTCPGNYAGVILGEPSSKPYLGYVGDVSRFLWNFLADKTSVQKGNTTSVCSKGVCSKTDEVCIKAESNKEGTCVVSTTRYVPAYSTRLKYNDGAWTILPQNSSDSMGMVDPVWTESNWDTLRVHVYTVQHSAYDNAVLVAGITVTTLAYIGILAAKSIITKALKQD

B1: AtPS2–GFP (natural protein, Arabidopsis thaliana, UniProt Q9SIK7 1-397, looked up)
chain: MDRNQRPRSILDSLGEELIAILTPVSICMFTVVLLVCILNSDPSSSSASFSSIATAAYSESDSDSSWDKFVGALLNSVVFVAAITVATFVLVLLFYLRCVKFLKFYMGFSAFIVLGNLGGEILVLLIDRFRFPIDSITFLILLFNFSVVGVFAVFMSKFSILITQGYLVWIGVLVAYFFTLLPEWTTWVLLVALALYDIAAVLLPVGPLRLLVEMAISRDEDIPALVYEARPVIRNDSRSVQRRVWREQRSSQNNANRNEVRVVESAEVEEEHVGSSERAEISVPLIDRRPEQAENSETFLEGIGLGSSGAIKLGLGDFIFYSVLVGRAAMYDLMTVYACYLAIIAGLGITLMLLSVYQKALPALPVSIMLGVVFYFLARLLLEVFVVQCSSNLVMF
notes: Arabidopsis thaliana presenilin 2 (AtPS2, At2g29900); cDNA made from leaf RNA; FLIM-FRET donor; also called presenilin 2; AtAtPS2–GFP; source: A. thaliana leaf mesophyll protoplasts, transiently transfected (pSITE vector), in living cells; not shown: eGFP, C-terminal, kept
B2: AtPS1–GFP (natural protein, Arabidopsis thaliana, UniProt O64668 1-453, looked up)
chain: MESSILDSLGVEIIGVMAPVSICMFLVVLLTYSLSVTSDPQIRSAANLIYIENPSDSTTVKLEGSLANAIVFVVLIAAVTFILVLLFYYNFTNFLKHYMRFSAFFVLGTMGGAIFLSIIQHFSIPVDSITCFILLFNFTILGTLSVFAGGIPIVLRQCYMVVMGIVVAAWFTKLPEWTTWFILVALALYDLVAVLAPGGPLKLLVELASSRDEELPAMVYEARPTVSSGNQRRNRGSSLRALVGGGGVSDSGSVELQAVRNHDVNQLGRENSHNMDYNAIAVRDIDNVDDGIGNGSRGGLERSPLVGSPSASEHSTSVGTRGNMEDRESVMDEEMSPLVELMGWGDNREEARGLEESDNVVDISNRGIKLGLGDFIFYSVLVGRAAMYDLMTVYACYLAIISGLGCTLILLSVYNRALPALPISIMLGVVFYFLTRLLMEPFVVGVTTNLMMF
notes: Arabidopsis thaliana presenilin 1 (AtPS1, At1g08700); FLIM-FRET donor; also called presenilin 1; source: A. thaliana leaf mesophyll protoplasts, transiently transfected (pSITE vector), in living cells; not shown: eGFP, C-terminal, kept
B3: AtPEN-2–GFP (natural protein, Arabidopsis thaliana, UniProt Q9FY84 1-146, looked up)
chain: T1 sequence (looked up)
notes: Arabidopsis thaliana PEN-2 (AtPEN-2, At5g09310); FLIM-FRET donor; also called presenilin enhancer 2; source: A. thaliana leaf mesophyll protoplasts, transiently transfected (pSITE vector), in living cells; not shown: eGFP, C-terminal, kept
B4: AtNCT–GFP (natural protein, Arabidopsis thaliana, UniProt Q8GUM5 29-676, looked up)
chain: T2 sequence (looked up)
notes: Arabidopsis thaliana nicastrin (AtNCT, At3g52640); FLIM-FRET donor; also called nicastrin; source: A. thaliana leaf mesophyll protoplasts, transiently transfected (pSITE vector), in living cells; not shown: eGFP, C-terminal, kept

Assays:
Experiment in all cases: FRET or BRET; FLIM-FRET in living A. thaliana leaf mesophyll protoplasts that co-express the two fusions; eGFP donor, mRFP acceptor; E=1−τDA/τD×100%; FRET efficiency above the threshold of 5% (free eGFP with free mRFP) taken as putative positive interaction
Settings in all cases: partners not purified
AtAPH-1–RFP = target: T3, AtAPH-1–RFP (Arabidopsis thaliana, UniProt Q8L9G7 1-250)
T3 construct: Arabidopsis thaliana APH-1 (AtAPH-1, At2g31440); FLIM-FRET acceptor; also called anterior pharynx-defective 1; source: A. thaliana leaf mesophyll protoplasts, transiently transfected (pSITE vector), in living cells; not shown: mRFP, C-terminal, kept

AtPEN-2–RFP = target: T1, AtPEN-2–RFP
AtNCT–RFP = target: T2, AtNCT–RFP

T3 sequence (Q8L9G7 whole entry): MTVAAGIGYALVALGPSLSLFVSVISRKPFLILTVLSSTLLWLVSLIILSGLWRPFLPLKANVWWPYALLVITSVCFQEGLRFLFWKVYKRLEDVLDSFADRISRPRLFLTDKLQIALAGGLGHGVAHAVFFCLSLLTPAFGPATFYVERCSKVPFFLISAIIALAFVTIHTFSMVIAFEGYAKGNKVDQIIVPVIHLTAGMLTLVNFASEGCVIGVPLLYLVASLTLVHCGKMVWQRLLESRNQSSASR

| Binder | FRET efficiency, E_(FRET) (AtAPH-1–RFP) | FRET efficiency, E_(FRET) (AtPEN-2–RFP) | FRET efficiency, E_(FRET) (AtNCT–RFP) |
| --- | --- | --- | --- |
| B1 | 20% | 32% | – |
| B2 | 19% | 24% | 19% |
| B3 | – | – | 11% |
| B4 | 14% | – | – |

Reference: publication PMC4071823, “Gamma-secretase subunits associate in intracellular membrane compartments in Arabidopsis thaliana” (Journal of Experimental Botany, 2014)
